Data on six sequences can be found in a protein production outcome set (Wang et al. 2014).

The nature of this data set: label from the status in PepcDB records.
As for “MDRIPFGIRQLDSIINGGAPAGSVVLLSGEAGAGSREFMHTSALINGLEQVDTELHDLYYGDRSPDAVAPDEVHYISFTTNESQLVSEMRLAMDDDVVDKGSRAVEFHDLSERYFHISPVPREWYASETASITDLRARHEREDLLGTLGMVLNEVAANNLVVIDSLSDLVSAMGEEIEWSDISSLVQGLQKAAHQWGCLLLLHINPETLSTVRHGQLVDASHGTMEFAWESGGSTRARTLVVQQFRGVLSQIEDEDIVQFETELGDAGFDISDVRKIRLEHHHHHH”, the protein production result was “failed”.
As for “MDRLSYAIGDKAVLNNIRVQFQPGSVTALLGPNGAGKSTLLKALCQEIPSAQGSIKLGHCQLVDWPRAELAKSLAVLPQHASLTFPFTVDEVVAMGLYPLTLSQKEGQQLVTKWLAEVGVLHLARRSYPTLSGGEKQRVQLARVLTQLSQSPFPPILLLDEPTSALDLAQQHKVLALAKNLAHKHAYTVIVVLHDLNQAARYSDRVIVLKQGEIVSEGTPNDALSIDIIRQVWDYEPEFIPAPQGDYPLIF”, the protein production entry is recorded as “failed”.
“MDRNEVRHAWDSVSETYAERRDPTGSDAALLEDLLERLPEAPTVLDVGCGDGARTLANLPPRSVGLDFSRAGLDLAAETVPDSRLVQGDMGSLPVTTDSVDAITAYHAVFHVQRDQHPEVYREFARVLRPGGTVLMTLPSGQFETVRRGWMGGSMFFSAPGRRATLDQLADAGFTETETVTATDPLGSDSEFVFATLADALEHHHHHH”: the protein production entry is given as “not failed”.
As for “MDRNLVQKGDAPPSKRSDPGTEFCVDIVVKGRKTEVPERFRKHVAEKLKLEKIQKLDGKVISLDVEVSKEPNPRQADRCDRVEITLRSRGPVIRAEAAASDPYAALDLAAEKLGARLRKQHDKRFSRRGARRISAAEVADHVPGAATLNGNGDVVPTEKQDGVPTKKIGSLEVQGDGPLVVREKTHVAAPMSLDQALYEMELVGHDFYLFVDSETKEPSVVYRRHAYDYGVIHLTTDTMVTQAHAPDAGDALGGLEHHHHHH”, the protein production result is reported as “failed”.
For “MDRPETIAVKCEPMTVDSPSRPLKLVVLADLNFNPPETDDLDSSIPIPTPPPITRLSNEESHQEGGILTCKEVEPGEVEAKKISKVGKCRSRSKIESSSDCGVDADGDLANQGVPASREEKISNLKMGLIHVARKMPKNAHAHFILGLMFQRLGQSQKAIPEYEKAEEILLGCEPEIARPELLLLVQIHHGQCLLLDGFGDTDSVKELEGEELEEILSKLKDSIKLDVRQAAVWNTLGLMLLKAGCLMSAISVLSSLLALVPDNYDCLANLGVAYLQSGDMELSAKCFQDLVLKDHNHPAALINYAAELLCKHSSTVAGAGANGGADASEDQKAPMNVAKECLLAALRSDPKSAHAWVNLANSYYMMGDHRSSSKCLEKAAKLDPNCMATRFAVAVQRIKDAERSQDASDQLSWAGNEMASVIREGESVPIDPPIAWAGLAMAHKAQHEIAAAFVADRNELTEMEERAVYSLKQAVTEDPEDAVRWHQLGLHSLCSQQYKLSQKYLKAAVGRSRECSYAWSNLGISLQLSDEHSEAEEVYKRALTVSKEDQAHAILSNLGNLYRQKKQYEVSKAMFSKALELKPGYAPAYNNLGLVFVAERRWEEAKSCFEKSLEADSLLDAAQSNLLKATTMSRLCTCFSSSTVVRDS”, the protein production result is listed as “failed”.
The same measure for “MDRPLSFAAVSFLATLVTLLVLMQTALVAGGPLRALVLASVGAIGTYFAIRSGVLKS”: “failed”.
